This assay has as its target T1, recombinant mouse TNF-α (mouse), P06804.
T1 chain: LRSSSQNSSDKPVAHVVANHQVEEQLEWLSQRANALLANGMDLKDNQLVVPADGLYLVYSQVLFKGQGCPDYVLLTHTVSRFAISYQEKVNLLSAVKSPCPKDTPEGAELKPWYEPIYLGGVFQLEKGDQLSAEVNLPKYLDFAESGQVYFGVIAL
Description: cross-linking; 100 ng recombinant TNF-α incubated 1 h at 37 °C with different concentrations of DMSO (or without: cross-linked control), cross-linked with 4.8 mM BS3 for 30 min at room temperature, stopped with 1/10 volume 1 M Tris-HCl pH 7.5; SDS-PAGE and Western blot with anti-TNF-α antibody. Conditions: remark: other sources report otherwise. For orientation: Immunoblotting shows a protein as a band on a membrane.

B1: recombinant mouse TNF-α, P06804 80-235 (ligand)
chain: LRSSSQNSSDKPVAHVVANHQVEEQLEWLSQRANALLANGMDLKDNQLVVPADGLYLVYSQVLFKGQGCPDYVLLTHTVSRFAISYQEKVNLLSAVKSPCPKDTPEGAELKPWYEPIYLGGVFQLEKGDQLSAEVNLPKYLDFAESGQVYFGVIAL
For the molecule B1, the stoichiometry N worked out at 3.

The stoichiometry N is a count of units in the complex or per binding partner.
